The text below walks through data of the DeepSol protein solubility set.

This data set is described as follows: soluble on expression in E. coli; label from the status in PepcDB or PDB records.
Consider “MGSDKIHHHHHHMGEIMKFYDREKELNYLKTYCQLEPNSILFVYGPKSSGKSTVMRRVIKELENSNIVFFYYNLRKYATPTRDEFLRVFFEKSDKKYLLNKLELNLGVCKFGIEENFDFNNLCLNDVFAKINESINAVVEEGKKPVLIIDELQKLKNIYFNGGKSLLNELFNLFVSLTKMEHLCHVICLTSDTLFIDEIYRNSTLKNASEYYLIDWLRKGTIRNILKEEGFSEEEINYALDYLSLPYEISQLINNKKLGLSVEQTIKQWINVEKDGLKYLIDTTDLDEEGLYNVLSKFKDKIKISYDKEVKKEEMKYLKFLIENEILFYDVINGIIKPTSIIEWHAIKEIINAMQ”, for which the “soluble on expression in E. coli” value was “not soluble”.

In the case of “MRMRHKPWADDFLAENADIAISNPADYKGKWNTVFGNDNPIHIEVGTGKGQFISGMAKQNPDINYIGIELFKSVIVTAVQKVKDSEAQNVKLLNIDADTLTDVFEPGEVKRVYLNFSDPWPKKRHEKRRLTYSHFLKKYEEVMGKGGSIHFKTDNRGLFEYSLKSFSEYGLLLTYVSLDLHNSNLEGNIMTEYEEKFSALGQPIYRAEVEWRTLEHHHHHH”, the “soluble on expression in E. coli” value is “not soluble”.

For the sequence “MNVGYLCTYTPKELIDAAGFTPIRIFAGDMQISLATAHIQSYACSQARGSLERALRGELDVQAVVFTRCCDTLMRLADIWERNTDMRVYNIEFPTRVEERSKDYYFNELKDFVKVLEEWGGGVTLESLRESLKLYHELEEKLKRLFSLKPDYEAAKRVQEMNVREAIKFVDERLRKAESEGGKPRVLITGSVCPFVEVYTLFEEAGFALKDDICTGTRFFTFNTPPREIGSVDEGLRFLVDKYFEKAPCPTKHFPNDDRFKYILEMAKDCDGVVFLLLKFCEPHFYDYPQLKERLEEMGKKVLLLELEFPIASIEQLRTRIEAFYEVIA”, the “soluble on expression in E. coli” value is reported as “not soluble”.

Consider “MSNQDYTGVRVEGARKLRSTLKKAGIDVRDDMKQAHKDAASIVSRRAAQITPVGPGSRRHKPGQLKASVRPAGTQTAAIVRAGKKRVPYAGPIQWGWHKRKIKPTFFLTRAASDTEPAWLKGYEKKFNQILDSIEGK”, for which the “soluble on expression in E. coli” value is recorded as “not soluble”.

On to “MDVDRLMRDLSVEQLENIQQNLEKEMEGKRESLREMVGRRYRDVLEASSEVRHVCSLADKLASDIANTRVGYQSTHVRTGGREEQKAGEHLYAVNYLVSSIGGDSGEPLDDVVALCMVEHLQKQLISNHSSPMIHKNARALTNRIVATRSELEFQNCSTLLDISRSDWATNQLAAIALLQGKDISQLLELYLEKRFEHVTHLIEDSATILNIVDEMKKTLAVVEELFVHGELIHAIHSVCNGQYKCELIREMCADQAYSFEKTINEDMDRVWRHLREKLSGRGAGTLPSQLVGEKCAAWIEKTCAVTHKLVAEVCEYFDNLDQIIDLLQAITASLKQDWPRIGSNRSVYDKLLQTAVVDKAKILLIQMIESIELFAKKRFESTSDGPQTAIFDERTYHPDSQSHIGISTQLYNCVKTLWESLEQTNEKCAQFETICTPMADMATSNALKETMATNVLQLLLRLCELHSDKQEGSARFLARARLALALVHSESTLICKLLDKDSQRITSLNQRLHSIIEKNLG”, for which the “soluble on expression in E. coli” value is given as “not soluble”.

Consider “MSIVSLAKQSGLSVSSISAYENNKRQPKIESLQKISKVLGVSSAYLNGMSEEKNILNVNSQSLKNNTIDIDVIGFLLNVRSTYPGKVPIFIQDVLAGAPIYIDDNGNKLDAKKRKLLITFLKTLLN”, for which the “soluble on expression in E. coli” value is listed as “not soluble”.

As for “YIGSQDTPYTGGLINTFSYKNWELTANLSFNLGGYVRTTPSYNFINFDRGQNVNSDILDRWTPENTDGRLPALITSEKRADEYYWYDQKSEIYKNLDIWVKKLNYFRLQNLRLGYRLPEKMTKSLGMGSASVAIEGRNLLVFGSSYKNFLDPESMYNPYAPPIPKSITFSLNLNF”, the “soluble on expression in E. coli” value is “not soluble”.

Regarding “MLSAESLKQIDIELAKYPADQRRSAIMGALRIAQTEKGWLAPETIAFVADYIGISPAQAYEVATFYNMYDLEPVGKYKLTVCTNLPCALRGGMATGEYLKQKLGISYGETTPDGKFTLVEGECMGACGDAPVMLLNNHKMCSFMTEEAIEKKLAELELEHHHHHH”, the “soluble on expression in E. coli” value is reported as “soluble”.

On to “MPGYYKISHSWEYRRRTCQDDVLLEAVITSDTNLNTEKTLLQWLNDKNKNKGTNTVDYKDITCWYYGGVWLHYAINNNALSLYMHSSGEDAFDSLNYCAYEIAKTFYKNHSDISILWIEHPHKRNKLKET”, for which the “soluble on expression in E. coli” value is “not soluble”.

Regarding “MGSDKIHHHHHHMRKPGDFLESGMTESVNEKADVMKVPVPNLALGMYVAAIDHQGRVNITNPGQIKDRQAIDKLVRNGIEYVWVDVERSAPECGLRPKQEPEKIIRLTRDQSQEKAKRLMSEAKDLVKKVLSETFEGKAVKVEPFEALADKMLESVMLDADAFKCISALRSKDAYLLEHSINVAFLLVTFGRYLKLKRSVLKQLAVGGILHDIGKVRVNNRILHKPGRLTPEEFEHMKLHQVYAQEILAETEDLSQISRDVCLMHHEKLDGKGYPNGLKGEEISLHGRMSCIVDIFDALTATRCYKEAMSPAAAFKILLSLTPFHLDEKLVYEFIRCVGIYPVGSLVQLSDGRIGIVWEAKDRDALHPVLKTFYSVKHKHYTEVTMVDLLKSDLFIERGVSPSSLDVDPTPFY”, the “soluble on expression in E. coli” value was “not soluble”.

“MTLTDISLAQAFISIPQDVIALDLSNNLLGSKSCVDLLVNIADCIPAGVTSLDLSSNGLRLTQVSLVTPKHVTSLNLCFNPLHEISIDGLEWLKDSLAHIQIIYLSYDMVNNMSREQRQAFRAVIPNIQTIILVDKNGKEIGPSHTAKIANLISELGGGNPEVPSLEHHHHHH”: the “soluble on expression in E. coli” value is on record as “not soluble”.

Turning to “MAHHHHHHMRPHTPAKVATTASDGATTTKTTSHPVLLGCGLNWASFVASHPFEVKELTSVLVGDGSDDDGVPEERDALVQAQLPVASVVTSGATLERVFTEAMVCASARAEVARKVQHIATVWCLHPSSEYVATLCWPMEGGESASTTTAVLKVQTEGGRAPLDLRAVSLHVVDRGSLVFHPEFTRCILAQGAERFMYYVPPNPLEATTALPFMRGLWYNGLFSLLELLRIGPQHVVMLFVLPNGDTRYTLDLAPESPAVPAPSSTHQQGSGALGSAASRNATASLYPWRRQSKVRRVIRSGAYVVVVRDDTAGVVESLQRACSYHGQNKRSTWLNDIFIHLMGQCSRRDILCSADAAASQPAEADKANDVRLLCIELVEKATGEVMAGCCGMAVGCAYHDYTMYTLRQTKDGLGTFLTKLIGEALQRCGYTLWYWGFCVEYMRHFERHFGAVDMPRDVFYRRWSAARDAAPECSIDAYLRSHKGMVPYYEGTSALVKSKP”, the “soluble on expression in E. coli” value is given as “not soluble”.

Regarding “MGSDKIHHHHHHMILGEIMEVLAFKNQSLIDHVNDMVKYWERIKYRYLKTIKRALEALNIKLDIEKVDEFMKILIKLHDIGKASKIYQRAIINDQEKLMGFRHELVSAYYTYHILLKKFGDKNLAFIGALTVMLHHEPIIMGQIRNLKKKELTAEVVLDKLKKFDGMIEDFEDLIKKLIGYSIGDIIKNDSNKDDIIRFVIEMSVRARHTPNSEKLRFIVGTLLLPLVMCDYKGAESREGKAPKFAEVLEVESYVI”, the “soluble on expression in E. coli” value is on record as “not soluble”.

Turning to “MSDPAGGKALRRDAAENRQRLLDAAATVFSARGLDVGVDEIARVAGVGIGTLYRRFPTKDALISELVRQVLEDFLTLAHEALSAPEGEGLEQVLYGSGAILASNRGCLSRMWNDDQTTVLRNEYRRILFELLAGAKQHGRIREDATEADLDLIFWSLRGVVATTRGVTDTGWRRILAVMIAGLRPGAERLDAAPLSAQDVAQIMENLWPR”, the “soluble on expression in E. coli” value is “not soluble”.

Take “MAHHHHHHMFGTTRVWRNTFLTKSVATPPISVIRTGPRWWADPERMVRQKLMYFTLGVDQLPLRRTAVIQKDLHRFHMCKPPPRIGDTTGYKRSRAAQLTTWYRRIQYQEYHLQHLFTRHVWGLVRAYPGNTTKIQGKADDGYVGYDSVPYHRYNRTPLPFPAREIYGRRE”: the “soluble on expression in E. coli” value is given as “not soluble”.

As to “MGSDKIHHHHHHMFKLIIVEDEHLIRKWLEIAVDYSALGIQVVGTASHGQEGMKLIQEKEPHIVLTDITMPIMDAFMMFEATRTLSYEKVILSGYNDFQNAKKAMQYGAVDFLSKPIDTKELTECLQKIVLRLRVSTRQETPFLEEYQTLLTSIQQIDTQNQIIQQILEFVHQHYCMHFTISSIAENLGYSESYLYKVIKEDFPMTLNEYILRYRLKQAIDKMAESPNSPLSDISEQIGFSDYKYFAKVFKKYLHISPKELKLMDKNH”, the “soluble on expression in E. coli” value is given as “not soluble”.

For the sequence “MGSDKIHHHHHHMQRHLVDEFWCINVDSTAWSKVLHRGTRREFKKGEQIVSAGELVTQLRYLESGSVCMKRTTLDGNEKILMHIERSSLFCEVPFFTGDEIHSSFNCHRDAVVYCFSKEVVDDILEMYPCIAKDIIRTLSMKVSVLSNQIASLGLDTLEQRIAKFILLRYNLMNLADADLMTLGTLRMKDVASILGVHRATLYRALKTMEKMRLIKLLNENRLQVLNIEALAALANH”, the “soluble on expression in E. coli” value is reported as “not soluble”.

Consider “MSLIIRTDTSPHRAAAKLSPNELTLTGARLVLPDEVYDGTVHIIDGYIDDIAAGRSTVPGAIDLEGGYVTPGLIDLHTDNSEKHALPRAGVVWNHLSAVMAHDALVIAAGITTVFDSLCIGSTTRDHTRQADRARILPVLIDGIREARAHGLLRADHFLHLRCEVTDEEVMSVFTPLVGDPLVKLVSVMDHAPGHRQSPQLDRFREMQIKQYGWSAEDADRRIEAWIDASRTIGPQNRSRIIALARARQLPLASHDDQTPEHVREANDAGVLISEFPTTRAAAEIARSLGICILMGAPNIVRGSSHSGNISARELATTGHLDILASDYVPASLLHGAFQLTRDPIGMSLTKAISTVSSVPASVTGFCDRGMIGIGGRADLCHIVEIADIPVVRGVWRQGRQVFEGHHHHHH”, for which the “soluble on expression in E. coli” value was “not soluble”.

“MPADRYATGNGFTGIIRTRHQTFKRHRSAHRRNGQNPIGLPARSRWQPAGNQQLLIFRRLMQNKKQPAQAVFLAASLTPTAAPSSLPVGKR”: the “soluble on expression in E. coli” value is on record as “not soluble”.

Regarding “SQPDHGRLSPPEAPDRPTISTASETSVYVTWIPRGNGGFPIQSFRVEYKKLKKVGDWILATSAIPPSRLSVEITGLEKGISYKFRVRALNMLGESEPSAPSRPYVVSG”, the “soluble on expression in E. coli” value is on record as “soluble”.

With “MGSDKIHHHHHHMTLELCRLSLQQTQELLRLTDATLKNICSRRFSGEELYSEAIRRVLGGGGKRGPESIFLLIDGIGGTSRGWIFQLQAGELVRSSDEILVDADSVYSLGRLGSEVLVSNWRESFESIERYQVIFHPDIVKHIAKPIRNFVACQISGESNGALLAFNYAGEATEYDGDVLRGLSVVIGSLVTLSVMVRETEHAFIYTIEALARACEAAEESTGDHIVRVNRYAGALAAHMDLSPDFVEVISYSAQMHDVGKIRVPTAILLKPGPLDEAEERVMRLHPEFGEQILGDSPRLSVAREIALSHHENWDGSGYPRGLQGEAIPLAGRIVKLADVYDALRSRRSYKKALSHAEARAVFLNGDERITPRSHFDPRVLETFFRIEPLFERIYQSSRNQQV”, the “soluble on expression in E. coli” value was “not soluble”.

With “MSEFEGWIKWLEPVFLLWKPEDPGYERPAYRDWTKEEDEPKYSPEKELALLDKQILASDGFDIDFTHFRCVFNYHLAYLDSHEFVDEPETTRDLLERLSRKALDDYNQESVVKANFHFCCAIMFLITFEVVDPYDNLIKLFQTRVRHAEDIVTEYVFCRPKPNQGVECIGVKNNDGKDVQTNVKEQEIPCMYGWFLRVITITFTLQIGVGASICHKE”, the “soluble on expression in E. coli” value was “soluble”.

Consider “MIEIKRIQQQPDLAQAIYAVMAAVYLVSPWTLEQIQADLSQDQTWYALAYDGAEVIGFLAVQENLFEAEVLQIAVKGAYQGQGIASALFAQLPTDKEIFLEVRQSNQRAQAFYKKEKMTVIAERKAYYHDPVEDAIIMKREIDEG”, for which the “soluble on expression in E. coli” value was “soluble”.

Consider “MRLFILLSCLLAWVLAAPYIDQEDALRVLNAYLEQFGPGSDRVYYVAEDDHGSMKRGLGPRPLRFG”, for which the “soluble on expression in E. coli” value was “not soluble”.
